Laboratory results taken from doi:10.1101/2022.03.11.483953.

Target: full-length H. sapiens ROCK2 (H. sapiens), O75116
Assay: rotary shadowing electron microscopy
Conditions: remark: other sources report otherwise

stoichiometry N: 2
B1: full-length H. sapiens ROCK2, O75116 1-1388 (enzyme)
chain: MSRPPPTGKMPGAPETAPGDGAGASRQRKLEALIRDPRSPINVESLLDGLNSLVLDLDFPALRKNKNIDNFLNRYEKIVKKIRGLQMKAEDYDVVKVIGRGAFGEVQLVRHKASQKVYAMKLLSKFEMIKRSDSAFFWEERDIMAFANSPWVVQLFYAFQDDRYLYMVMEYMPGGDLVNLMSNYDVPEKWAKFYTAEVVLALDAIHSMGLIHRDVKPDNMLLDKHGHLKLADFGTCMKMDETGMVHCDTAVGTPDYISPEVLKSQGGDGFYGRECDWWSVGVFLYEMLVGDTPFYADSLVGTYSKIMDHKNSLCFPEDAEISKHAKNLICAFLTDREVRLGRNGVEEIRQHPFFKNDQWHWDNIRETAAPVVPELSSDIDSSNFDDIEDDKGDVETFPIPKAFVGNQLPFIGFTYYRENLLLSDSPSCRETDSIQSRKNEESQEIQKKLYTLEEHLSNEMQAKEELEQKCKSVNTRLEKTAKELEEEITLRKSVESALRQLEREKALLQHKNAEYQRKADHEADKKRNLENDVNSLKDQLEDLKKRNQNSQISTEKVNQLQRQLDETNALLRTESDTAARLRKTQAESSKQIQQLESNNRDLQDKNCLLETAKLKLEKEFINLQSALESERRDRTHGSEIINDLQGRICGLEEDLKNGKILLAKVELEKRQLQERFTDLEKEKSNMEIDMTYQLKVIQQSLEQEEAEHKATKARLADKNKIYESIEEAKSEAMKEMEKKLLEERTLKQKVENLLLEAEKRCSLLDCDLKQSQQKINELLKQKDVLNEDVRNLTLKIEQETQKRCLTQNDLKMQTQQVNTLKMSEKQLKQENNHLMEMKMNLEKQNAELRKERQDADGQMKELQDQLEAEQYFSTLYKTQVRELKEECEEKTKLGKELQQKKQELQDERDSLAAQLEITLTKADSEQLARSIAEEQYSDLEKEKIMKELEIKEMMARHKQELTEKDATIASLEETNRTLTSDVANLANEKEELNNKLKDVQEQLSRLKDEEISAAAIKAQFEKQLLTERTLKTQAVNKLAEIMNRKEPVKRGNDTDVRRKEKENRKLHMELKSEREKLTQQMIKYQKELNEMQAQIAEESQIRIELQMTLDSKDSDIEQLRSQLQALHIGLDSSSIGSGPGDAEADDGFPESRLEGWLSLPVRNNTKKFGWVKKYVIVSSKKILFYDSEQDKEQSNPYMVLDIDKLFHVRPVTQTDVYRADAKEIPRIFQILYANEGESKKEQEFPVEPVGEKSNYICHKGHEFIPTLYHFPTNCEACMKPLWHMFKPPPALECRRCHIKCHKDHMDKKEEIIAPCKVYYDISTAKNLLLLANSTEEQQKWVSRLVKKIPKKPPAPDPFARSSPRTSMKIQQNQSIRRPSRQLAPNKPS
